Results from the supplement of paper PMC12338614.

B1: library; numbered along this chain (parent)
chain: MEVVDPQQLGMFTEGELMSVGMDTFIHRIDSTEVIYQPRRKRAKLIGKYLMGDLLGEGSYGKVKEVLDSETLCRRAVKILKKKKLRRIPNGEANVKKEIQLLRRLRHKNVIQLVDVLYNEEKQKMYMVMEYCVCGMQEMLDSVPEKRFPVCQAHGYFCQLIDGLEYLHSQGIVHKDIKPGNLLLTTGGTLKISDLGVAEALHPFAADDTCRTSQGSPAFQPPEIANGLDTFSGFKVDIWSAGVTLYNITTGLYPFEGDNIYKLFENIGKGSYAIPGDCGPPLSDLLKGMLEYEPAKRFSIRQIRQHSWFRKKHPPAEAPVPIPPSPDTKDRWRSMTVVPYLEDLHGADEDEDLFDIEDDIIYTQDFTVPGQVPEEEASHNGQRRGLPKAVCMNGTEAAQLSTKSRAEGRAPNPARKACSASSKIRRLSACKQQ

Variants of: B1
Experiment: STK11 functional score (HeLa growth suppression), rescaled enrichment; synonymous median = 1, nonsense median = 0 (normalised score)
Details: with HeLa; variant type: missense
Experimental: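 Deep mutational scan (TileSeq/POPCode codon randomisation) of full-length codon-optimised STK11 cDNA integrated at a Bxb1 landing pad (AAVS1) in HeLa cells. Restoring functional STK11 suppresses HeLa proliferation. Variant frequencies were measured by NGS before and after about two weeks of growth. The error-corrected enrichment log-ratio was rescaled so that synonymous median = 1 and nonsense median = 0, scores above 1 were compressed, and codon-level and three biological replicate scores were combined; error is the bootstrapped standard error. Scale: synonymous median = 1, nonsense median = 0; below 0.5 = damaging.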

STK11 functional score of substitutions, site by site:
Q7: E 1.27; M 0.16; D 1.33; A 1; I 1.61; L 1.25; Y 1.22; G 0.637; W 1.1; R 1.38; S 1.02; V 1.37; P 0.819; C 1.55
E2: Q 1.21; K 1.16; V 1.36
E33: Y 1.21; G 0.902; A 1.32; V 0.509; W 0.795; F 0.855; C 1.11; S 0.81; L 1; P 1.4; T 1.69; N 1.33; M 1.44; I 0.611; D 1.09
V3: S 1.35; A 1.46; W 0.953; D -0.174; G 1.47; F 0.991; I 1.06; P 1.69; M 0.72; L 0.558
F25: C 1.63; I 1.69
T13: G 0.27; C 1.59; A 1.5; I 1.01; K 0.0631; L 0.906; P 1.58; W 0.14; V 1.6; R 1.08; F 1.25; S 0.282
S31: V 1.58; Q 1.37; R 1.54; L 1.02; M 0.857; W 0.921; G 1.57; H -0.108; T 1.5; D 1.28; Y 1.36; F 0.829; A 1.44; I 1.41
F12: L 1.23
T24: H 1.7; P 1.65; S 1.15; W 1.6; L 1.18; G 1.43; I 1.02; F 1.37; C 1.22; V 0.875; R 0.782; A 1.36; Y 1.49
I35: E 1.66; M 0.908; G 1.25; F 0.949; D 1.67; A 1.43; L 1.11; C 1.39; N 1.02
T32: R 1.36; H 1.68; Y 0.666; A 1.66; G 1.45; I 0.842; L 1.16; W 1.52; K 0.829; S 1.45; P 1.48; V 1.41
R28: S 1.59; A 1.52; I 1.41; L 0.637; V 1.03; W 1.18; C 0.873; P 0.47; G 0.685
L9: N 1.67; W 1.49; I 1.37; A 1.28; S 1.37; F 1.06; P 1.43; V 0.506; C 1.54; M 1.01; R 1.12; H 1.67; Y 1.56
P6: R 1.29; C 1.1; V 1.5; A 0.942; D 1.66; F 0.754; E 1.24; T 0.874; I 1.61; S 1.52; W 0.513; L 0.99; G 0.386; Y 1.67; M 0.679
E16: S 1.39; A 1.53; F 1.42; Q 1.16; C 1.38; L 1.15; K 0.291
H27: I 0.637; V 1.05; D 1.22; L 1.35; P 1.35; R 1.03; Q 0.792; S 0.805; M 1.63; W 0.807; A 1.19; Y 1.24; G 1.54
D30: P 1.67; V 0.22; L 1.07; A 1.7; E 1.13
